Paper PMC11447847
Where two headings read alike, the source gives them in different places.

Experiments:
[1] = biological target: T1, CELF1 RRM1-2 (UniProt Q92879 1-187); assay: EMSA
[2] = biological target: T2, TDP43 RRM1 (UniProt Q13148 101-192); assay: CG-MALS
[3] = biological target: T1, CELF1 RRM1-2; assay: CG-MALS
[4] = biological target: T2, TDP43 RRM1; assay: CG-MALS; remark: listed apart in the source

T1 sequence (Q92879 1-187): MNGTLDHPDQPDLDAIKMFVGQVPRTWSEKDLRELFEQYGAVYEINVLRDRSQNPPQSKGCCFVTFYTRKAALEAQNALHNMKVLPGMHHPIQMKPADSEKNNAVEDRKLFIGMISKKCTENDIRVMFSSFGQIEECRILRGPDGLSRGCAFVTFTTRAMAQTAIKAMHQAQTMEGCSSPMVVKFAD
T2 sequence (Q13148 101-192): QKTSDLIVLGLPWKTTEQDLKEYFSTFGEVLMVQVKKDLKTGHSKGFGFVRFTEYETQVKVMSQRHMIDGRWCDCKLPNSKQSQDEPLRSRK

UGUUUGUUUGUUUGUU (ssRNA) [(UGUU)4 ssRNA]
binding result [1]: binds

TGTGTGTGTGTG (ssDNA) [(TG)6 ssDNA]
Kd [2]: 10400 ± 3200 nM

GUGUGUGUGUGUGUGUGUGUGUGUGUGUGUGUGUGUGUGUGUGU (ssRNA) [(GU)22 ssRNA]
Kd [3]: 390 ± 30 nM

GTGTGTGTGTGTGTGTGTGTGTGT (ssDNA) [(GT)12 ssDNA]
Kd [4]: 1340 ± 120 nM
